For assay [1], the target named is T1, CCR1 (Homo sapiens, UniProt P32246).
T1 sequence (P32246 1-355): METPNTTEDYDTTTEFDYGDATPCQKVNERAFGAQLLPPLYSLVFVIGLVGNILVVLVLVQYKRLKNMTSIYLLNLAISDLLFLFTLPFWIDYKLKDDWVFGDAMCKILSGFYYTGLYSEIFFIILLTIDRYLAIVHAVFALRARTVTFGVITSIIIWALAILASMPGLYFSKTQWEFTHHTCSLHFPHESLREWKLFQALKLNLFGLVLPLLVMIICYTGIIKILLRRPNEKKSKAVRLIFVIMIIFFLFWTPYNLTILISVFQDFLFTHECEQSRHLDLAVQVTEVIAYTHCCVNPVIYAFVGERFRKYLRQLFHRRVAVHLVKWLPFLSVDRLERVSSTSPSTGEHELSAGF
Put plainly: Calcium mobilization in murine L1.2 cells expressing human CCR1. The format is cell-based. The note with it: for calcium mobilization: L1.2-CCR1 cells. Also on record: expressed in transfected cells; host or cells: murine L1.2 cells (G-418 selected transfectant). The method, then:
(§1) Calcium Mobilization Assay. Cells were loaded for 1 hour with 2 μM indo-1/AM dye (Molecular Probes, Eugene, Oreg.) in culture medium, then washed with 10 ml PBS and resuspended at 10^6/ml in HBSS containing 1% FBS. Cytosolic calcium responses were determined using a Photon Technology International (Lawrenceville, N.J.) fluorimeter, with excitation at 350 nm and dual emission at 400 and 490 nm. Alternatively, cells were loaded with 5 μg/ml Fluo-4 AM dye (Molecular Probes, Eugene, Oreg.), then washed and analyzed on a Fluorometric Imaging Plate Reader 384 (FLIPR^384 Molecular Devices, Sunnyvale, Calif.), with 505 nm excitation and 530 nm emission.
(§2) Receptor signaling assay. For individual measurements, cells were loaded for 45 min at room temperature with 2 μM indo-1/AM (Invitrogen, Carlsbad Calif.) in culture medium, then washed with 10 ml PBS and resuspended at 10^6 cells/ml in HBSS containing 0.1% BSA. Cytosolic calcium levels were determined using a Photon Technology International fluorimeter (excitation at 350 nm, ratio of dual emission at 400 and 490 nm). For measuring calcium dose responses, cells were analyzed with a Fluorometric Imaging Plate Reader 384 (FLIPR^384) (Molecular Devices, Sunnyvale, Calif.). Cells were loaded for 1 hr at 37° C. with 5 μM fluo-4 in HBSS with 0.1% BSA, then washed, transferred to black-wall 96-well plates, and subsequently excited at 505 nm with emission recorded at 530 nm with a standard protocol provided by the manufacture. Cells were stimulated with agonists 20 s after the monitoring of fluorescence began. Data were analyzed and plotted in arbitrary units of fluorescence using Prism. To ensure that responses were specific to FPRL1, we utilized a selective small-molecule antagonist of human FPRL1, generated by ChemoCentryx, which was optimized from a high throughput compound library screening approach.
In general terms: A change in cytosolic calcium serves as a functional read-out for many receptors and channels.

The test system of assay [2] is human monocytes. Put plainly: Chemotaxis of human monocytes. The assay is classed as cell-based. On the procedure: (§3) Chemotaxis assay. L1.2-CCR1 transfectants, THP-1 cells, human monocytes and human neutrophils were collected by centrifugation and resuspended in HBSS containing 0.1% BSA. Chemotaxis assays were performed in 96-well ChemoTx® microplates (Neuroprobe, Rockville, Md.) as follows. Chemokines were added to the lower wells (final volume 29 μL), and 20 μL of cell suspension (5×10^6 cells/mL) was added to the polycarbonate filter (3 μm pore size for neutrophils, 5 μm for other 3 cell types). After incubation at 37° C. in the presence of 5% CO2 for 1 hr (neutrophils), 90 min (monocytes) or 2 h (THP-1 and L1.2-CCR1), cells were removed from the upper surface of the filter by scraping. Cells that migrated into the lower chamber were quantified by using the CyQuant cell proliferation assay kit (Molecular Probes, Eugene, Oreg.) and analyzed with a Tecan (Durham, N.C.) fluorimeter (excitation at 480 nm, emission at 530 nm). Data were analyzed and plotted in arbitrary units of fluorescence using Prism (GraphPad Software, San Diego, Calif.).
(§4) Chemotaxis assays. L1.2-CCR1 and L1.2-FPRL1 transfectants, monocytes and neutrophils were collected by centrifugation and resuspended in HBSS with 0.1% BSA. The assays were performed in 96-well ChemoTx® microplates (Neuroprobe, Rockville, Md.). Chemokines were diluted in HBSS with 0.1% BSA and added to the lower wells (final volume 29 μL), then 20 μL of cell suspension (5×10^6 cells/mL for monocytes; 2.5×10^6 cells/mL for neutrophils) were added to the polycarbonate filters (5 μm pore size for monocytes and FPRL1 transfectants; 3 μm pore size for neutrophils). After incubation for 90 min (37° C., 100% humidity, 5% CO2), the filters were removed and the cells that migrated into the lower chamber were quantified by using the CyQuant cell proliferation assay kit (Molecular Probes, Oreg.).

In another assay the test system is human neutrophils. Put plainly: Chemotaxis of human neutrophils. The format is cell-based. On the procedure:
as §3, §4

The test system of assay [3] is human monocytes. Put plainly: Calcium mobilization in freshly isolated human monocytes. The assay is classed as cell-based. On the procedure: as §1, §2
Assay [4] deals with T1, CCR1. Put plainly: Competition binding with 125I-MIP-1α on human monocytes. The arrangement: endogenous in cells; host or cells: human CD14+ monocytes from buffy coats. On the procedure: Binding assay. Competition binding studies were conducted using monocytes, L1.2-CCR1 or L1.2-FPRL1 cells. Cells were incubated for 3 hr at 4° C. with ^125I-MIP-1α (final concentration ˜0.05 nM) or ^125I-WKYMVm (final concentration ˜0.01 nM) in buffer (25 mM HEPES, 140 mM NaCl, 1 mM CaCl2, 5 mM MgCl2 and 0.2% BSA, adjusted to pH 7.1) in the presence of increasing amounts of unlabeled chemokine. Reactions were aspirated onto PEI-treated GF/B glass filters using a cell harvester (Packard). Filters were washed twice (25 mM HEPES, 500 mM NaCl, 1 mM CaCl2, 5 mM MgCl2, adjusted to pH 7.1). Scintillant (MicroScint-10; 35 μl) was added to the filters and counted in a Packard Topcount scintillation counter. Data were analyzed and plotted using Prism (GraphPad Software, San Diego, Calif.).

The target of a further assay is T2, L1.2-CCR1 cells (Homo sapiens, UniProt P32246).
T2 construct: expressed in transfected cells; host or cells: murine L1.2 cells (G-418 selected transfectant)
T2 sequence (P32246 1-355): T1 sequence (P32246 1-355)
Put plainly: L1.2-CCR1 chemotaxis assay. The format is cell-based. The conditions noted are these: three-point titrations 0.5, 5, 50 nM, 2 hr. On the procedure: as §3

Assay [5] relates to monocyte-derived dendritic cells. Put plainly: Calcium mobilization in monocyte-derived dendritic cells. The format is cell-based, human. The note with it: immature DC; after digestion with chymase, cathepsin G, elastase, synovial fluid or PMN sup #1. On the procedure: Human monocytes were obtained from buffy coats purchased from the Stanford Blood Bank (Palo Alto, Calif.) by sedimentation on Ficoll-Paque (Amersham, Piscataway, N.J.) and selection with anti-CD14 magnetic beads (Miltenyi, Auburn, Calif.) according to the manufacturers' instructions. For generation of dendritic cells, monocytes were cultured for 6 days in RPMI-1640 medium containing 10% FBS (HyClone, Logan, Utah). On days 0, 2 and 4, GM-CSF and IL-4 (both purchased from R&D Systems, Minneapolis, Minn.) were added to the cultures at 1000 WHO unit/ml each. The cells were confirmed to be CD14^−CD1a^+ immature DC by FACS staining on day 6.
as §1
Immature and mature DC preparation. Immature DCs were derived by culturing CD14+ monocytes in T-175 cultured flasks at a density of 10^6 cells/ml in RPMI supplemented with 10% FBS. Recombinant human cytokines GM-CSF and IL-4 (final concentration 1000 and 500 U/ml, respectively) were added on day 0, 2, 4 and 6. Cells were harvested on day 6 as immature DCs and characterized for surface marker expression by flow cytometry. DC maturation was carried out by culturing day-6 immature DCs in RPMI-10% FBS supplemented with GM-CSF, IL-4 and 50 μg/ml polyIC (Sigma, St. Louis Mo.). After two more days of culture, cells were harvested as mature DCs and characterized by surface marker expression by flow cytometry.
as §2

Another assay concerns the target T3, CCR9 (Homo sapiens, UniProt P51686).
T3 construct: endogenous in cells; host or cells: Molt4 cells (per the assay name)
T3 sequence (P51686 1-369): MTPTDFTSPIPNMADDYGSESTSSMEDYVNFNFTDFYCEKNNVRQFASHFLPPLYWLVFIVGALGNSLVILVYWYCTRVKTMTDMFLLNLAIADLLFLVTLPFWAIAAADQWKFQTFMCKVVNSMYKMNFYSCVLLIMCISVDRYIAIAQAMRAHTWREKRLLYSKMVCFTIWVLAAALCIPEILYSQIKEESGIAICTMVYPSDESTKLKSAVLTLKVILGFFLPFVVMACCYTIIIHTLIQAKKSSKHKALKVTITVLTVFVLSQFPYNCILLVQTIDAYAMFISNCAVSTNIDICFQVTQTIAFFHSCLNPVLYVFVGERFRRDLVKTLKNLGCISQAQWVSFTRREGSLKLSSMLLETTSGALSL
Put plainly: Calcium mobilization in Molt4 cells. The format is cell-based. The conditions noted are these: digestions at 1 nM, all proteases and fluids tested. The method, then: as §1

[6] abbreviates: undigested chemokine or peptide, 100 nM (CCL23β up to 250 nM).
[7] abbreviates: 10 nM input chemokine, after digestion with proteases and fluids.
Setting [8] is: 10 nM, undigested or recombinant chemokine.

B1: CCL23Δ24/MPIF-1: Recombinant CCL23/CKβ8 lacking the N-terminal 24 residues (46-120) (protein)
chain: RFHATSADCCISYTPRSIPCSLLESYFETNSECSKPGVIFLTKKGRRFCANPSDKQVQVCMRMLKLDTRIKTRKN
As for B1, the “calcium mobilization in the CCR1 transfectant” value with CCR1 [1] (L1.2 cells stably expressing human CCR1) is “effective at inducing calcium mobilization”. Moreover, the chemotaxis result with human monocytes [2] (undigested) is recorded as “moderately strong chemoattraction”; in the assay with human neutrophils it was “unable to induce migration”. Besides, the calcium mobilization result in the assay with human monocytes [3] (setting [6]) is “strong calcium responses”. Moreover, the “inhibition of 125I-MIP-1α binding” value in the assay with CCR1 [4] is recorded as “most potent competitor”.

B2: CCL6/C10: recombinant murine C6* chemokine (protein, listed as Homo sapiens)
chain: GLIQEMEKEDRRYNPPIIHQGFQDTSSDCCFSYATQIPCKRFIYYFPTSGGCIKPGIIFISRRGTQVCADPSDRRVQRCLSTLKQGPRSGNKVIA
For the molecule B2, the “chemotaxis potency of truncated forms versus full-length chemokine” value with L1.2-CCR1 cells is “greater potency”. Besides, the calcium mobilization entry is “uniformly active” with CCR1 [1] (setting [7]); “either not active or weakly active” with CCR1 [1] (setting [8]); “mobilized calcium” in the assay on human monocytes [3] (100 nM after digestion with chymase, cathepsin G, elastase or synovial fluid); “unable to induce calcium mobilization” in the assay on human monocytes [3] (setting [6]). Besides, in the assay on human monocytes [2] (200 nM after digestion with chymase, cathepsin G or elastase), the chemotaxis entry is given as “stimulated chemotaxis”. For the same molecule, the “concentration with the most migration” value in the assay with human monocytes [2] (after digestion with synovial fluid #1) came to 2 nM. Besides, the “calcium mobilization versus full-length chemokine” value in assay [5] is given as “more efficacious”.

B3: CCL9/MIP-1γ: recombinant murine C6* chemokine (protein, listed as Homo sapiens)
chain: QITHATETKEVQSSLKAQQGLEIEMFHMGFQDSSDCCLSYNSRIQCSRFIGYFPTSGGCTRPGIIFISKRGFQVCANPSDRRVQRCIERLEQNSQPRTYKQ
As for B3, in the assay with L1.2-CCR1 cells, the “chemotaxis potency of truncated forms versus full-length chemokine” value is given as “greater potency”. Also, the calcium mobilization result with CCR1 [1] (setting [7]) is “uniformly active”; in the assay with CCR1 [1] (setting [8]) it was “either not active or weakly active”.

B4: CCL25/TECK: non-C6* β-chemokine signaling through CCR9 (protein, UniProt O15444 24-150, looked up)
C-C motif chemokine 25: QGVFEDCCLAYHYPIGWAVLRRAWTYRIQEVSGSCNLPAAIFYLPKRHRKVCGNPKSREVQRAMKLLDARNKVFAKLHHNTQTFQAGPHAVKKLSSGNSKLSSSKFSNPISSSKRNVSLLISANSGL
In the case of B4, the “signaling through CCR9 after digestion” value with CCR9 is “inactivated”.
